Target: acetylcholine receptor (Homo sapiens, UniProt P02708)
Assay: SPR binding affinity (RU) of optimized 5mer/6mer/7mer peptides, Examples 6-7
Details: SPR; for Binding affinity, relative value to the RRQRR sequence: XRRQRR-6mer and RRQRRX-6mer; for Binding affinity, values relative to the RRGVRR sequence: XRRGVRR-7mer and RRGVRRX-7mer
Outline: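 Synthetic 5mer and 6mer peptides, built from frequent or infrequent amino-acid combinations, were tested at 10 μM for binding to the human acetylcholine receptor by surface plasmon resonance. Binding is reported in response units (RU).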

acetylcholine receptor, sequence (P02708 21-457): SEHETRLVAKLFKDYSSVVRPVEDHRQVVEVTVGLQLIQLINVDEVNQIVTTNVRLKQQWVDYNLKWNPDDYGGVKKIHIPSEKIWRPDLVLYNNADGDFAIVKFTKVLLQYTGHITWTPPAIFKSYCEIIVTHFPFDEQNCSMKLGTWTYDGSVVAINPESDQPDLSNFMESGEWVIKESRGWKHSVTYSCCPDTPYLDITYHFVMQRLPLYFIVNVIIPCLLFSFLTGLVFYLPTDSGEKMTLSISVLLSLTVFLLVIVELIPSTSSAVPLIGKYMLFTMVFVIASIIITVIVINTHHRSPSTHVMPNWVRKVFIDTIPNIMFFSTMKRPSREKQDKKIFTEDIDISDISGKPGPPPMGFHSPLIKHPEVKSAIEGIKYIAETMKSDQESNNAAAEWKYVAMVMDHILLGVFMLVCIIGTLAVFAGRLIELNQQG

Row | Substance | Binding affinity, relative value to the RRQRR sequence | Binding affinity, values relative to the RRGVRR sequence
1 | 3637 (RRQRRR) [compound 3637] | 192 | –
2 | 3638 (RRQRRH) [compound 3638] | 158 | –
3 | 3639 (RRQRRD) [compound 3639] | 65 | –
4 | 3640 (RRQRRE) [compound 3640] | 37 | –
5 | 3641 (GRRGVRR) [compound 3641] | – | 137
6 | 3642 (ARRGVRR) [compound 3642] | – | 134
7 | 3643 (VRRGVRR) [compound 3643] | – | 140
8 | 3644 (CRRGVRR) [compound 3644] | – | 128
9 | 3645 (PRRGVRR) [compound 3645] | – | 138
10 | 3646 (LRRGVRR) [compound 3646] | – | 149
11 | 3647 (IRRGVRR) [compound 3647] | – | 126
12 | 3648 (MRRGVRR) [compound 3648] | – | 124
13 | 3649 (WRRGVRR) [compound 3649] | – | 134
14 | 3650 (FRRGVRR) [compound 3650] | – | 139
15 | 3651 (SRRGVRR) [compound 3651] | – | 117
16 | 3652 (TRRGVRR) [compound 3652] | – | 105
17 | 3653 (YRRGVRR) [compound 3653] | – | 145
18 | 3654 (NRRGVRR) [compound 3654] | – | 109
19 | 3655 (QRRGVRR) [compound 3655] | – | 101

Row | Substance | Binding affinity, relative value to the RRQRR sequence | Binding affinity, values relative to the RRGVRR sequence
20 | 3656 (KRRGVRR) [compound 3656] | – | 169
21 | 3657 (RRRGVRR) [compound 3657] | – | 185
22 | 3658 (HRRGVRR) [compound 3658] | – | 160
23 | 3659 (DRRGVRR) [compound 3659] | – | 159
24 | 3660 (ERRGVRR) [compound 3660] | – | 43
25 | 3661 (RRGVRRG) [compound 3661] | – | 105
26 | 3662 (RRGVRRA) [compound 3662] | – | 118
27 | 3663 (RRGVRRV) [compound 3663] | – | 149
28 | 3664 (RRGVRRC) [compound 3664] | – | 131
29 | 3665 (RRGVRRP) [compound 3665] | – | 142
30 | 3666 (RRGVRRL) [compound 3666] | – | 146
31 | 3667 (RRGVRRI) [compound 3667] | – | 138
32 | 3668 (RRGVRRM) [compound 3668] | – | 127
33 | 3669 (RRGVRRW) [compound 3669] | – | 134
34 | 3670 (RRGVRRF) [compound 3670] | – | 137
35 | 3671 (RRGVRRS) [compound 3671] | – | 118
36 | 3672 (RRGVRRT) [compound 3672] | – | 113
37 | 3673 (RRGVRRY) [compound 3673] | – | 101
38 | 3674 (RRGVRRN) [compound 3674] | – | 105
